Experimental data as given in IntAct's records for PubMed 35512704.

B1: Speckle-type POZ protein (Homo sapiens), O43791 (parent)
chain: MSRVPSPPPPAEMSSGPVAESWCYTQIKVVKFSYMWTINNFSFCREEMGEVIKSSTFSSGANDKLKWCLRVNPKGLDEESKDYLSLYLLLVSCPKSEVRAKFKFSILNAKGEETKAMESQRAYRFVQGKDWGFKKFIRRDFLLDEANGLLPDDKLTLFCEVSVVQDSVNISGQNTMNMVKVPECRLADELGGLWENSRFTDCCLCVAGQEFQAHKAILAARSPVFSAMFEHEMEESKKNRVEINDVEPEVFKEMMCFIYTGKAPNLDKMADDLLAAADKYALERLKVMCEDALCSNLSVENAAEILILADLHSADQLKTQAVDFINYHASDVLETSGWKSMVVSHPHLVAEAYRSLASAQCPFLGPPRKRLKQS

Variants of: B1
Details: with ist1_human IST1, P53990
Sequence of ist1_human IST1, P53990 (P53990 whole entry): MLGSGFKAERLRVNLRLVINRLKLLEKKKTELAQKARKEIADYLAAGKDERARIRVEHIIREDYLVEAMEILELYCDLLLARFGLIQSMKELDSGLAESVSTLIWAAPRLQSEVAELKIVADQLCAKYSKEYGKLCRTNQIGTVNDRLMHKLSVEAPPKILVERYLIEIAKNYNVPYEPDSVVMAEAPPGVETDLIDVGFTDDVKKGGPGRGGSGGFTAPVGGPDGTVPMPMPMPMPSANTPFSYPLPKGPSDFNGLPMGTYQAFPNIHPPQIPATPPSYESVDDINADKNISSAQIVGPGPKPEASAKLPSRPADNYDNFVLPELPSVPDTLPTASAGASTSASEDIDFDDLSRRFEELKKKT

Variant | effect of a mutation on the interaction
MSRVPSPPPPAEMSSGPVAESWCYTQIKVVKFSYMWTINNFSFCREEMGEVIKSSTFSSGANDKLKWCLRVNPKGLDEESKDYLSLCLLLVSCPKSEVRAKFKFSILNAKGEETKAMESQRAYRFVQGKDWGFKKFIRRDFLLDEANGLLPDDKLTLFCEVSVVQDSVNISGQNTMNMVKVPECRLADELGGLWENSRFTDCCLCVAGQEFQAHKAILAARSPVFSAMFEHEMEESKKNRVEINDVEPEVFKEMMCFIYTGKAPNLDKMADDLLAAADKYALERLKVMCEDALCSNLSVENAAEILILADLHSADQLKTQAVDFINYHASDVLETSGWKSMVVSHPHLVAEAYRSLASAQCPFLGPPRKRLKQS [Y87C] | with no effect

Variants of: B1
Details: with jak1_human JAK1, P23458
Sequence of jak1_human JAK1, P23458 (P23458 whole entry): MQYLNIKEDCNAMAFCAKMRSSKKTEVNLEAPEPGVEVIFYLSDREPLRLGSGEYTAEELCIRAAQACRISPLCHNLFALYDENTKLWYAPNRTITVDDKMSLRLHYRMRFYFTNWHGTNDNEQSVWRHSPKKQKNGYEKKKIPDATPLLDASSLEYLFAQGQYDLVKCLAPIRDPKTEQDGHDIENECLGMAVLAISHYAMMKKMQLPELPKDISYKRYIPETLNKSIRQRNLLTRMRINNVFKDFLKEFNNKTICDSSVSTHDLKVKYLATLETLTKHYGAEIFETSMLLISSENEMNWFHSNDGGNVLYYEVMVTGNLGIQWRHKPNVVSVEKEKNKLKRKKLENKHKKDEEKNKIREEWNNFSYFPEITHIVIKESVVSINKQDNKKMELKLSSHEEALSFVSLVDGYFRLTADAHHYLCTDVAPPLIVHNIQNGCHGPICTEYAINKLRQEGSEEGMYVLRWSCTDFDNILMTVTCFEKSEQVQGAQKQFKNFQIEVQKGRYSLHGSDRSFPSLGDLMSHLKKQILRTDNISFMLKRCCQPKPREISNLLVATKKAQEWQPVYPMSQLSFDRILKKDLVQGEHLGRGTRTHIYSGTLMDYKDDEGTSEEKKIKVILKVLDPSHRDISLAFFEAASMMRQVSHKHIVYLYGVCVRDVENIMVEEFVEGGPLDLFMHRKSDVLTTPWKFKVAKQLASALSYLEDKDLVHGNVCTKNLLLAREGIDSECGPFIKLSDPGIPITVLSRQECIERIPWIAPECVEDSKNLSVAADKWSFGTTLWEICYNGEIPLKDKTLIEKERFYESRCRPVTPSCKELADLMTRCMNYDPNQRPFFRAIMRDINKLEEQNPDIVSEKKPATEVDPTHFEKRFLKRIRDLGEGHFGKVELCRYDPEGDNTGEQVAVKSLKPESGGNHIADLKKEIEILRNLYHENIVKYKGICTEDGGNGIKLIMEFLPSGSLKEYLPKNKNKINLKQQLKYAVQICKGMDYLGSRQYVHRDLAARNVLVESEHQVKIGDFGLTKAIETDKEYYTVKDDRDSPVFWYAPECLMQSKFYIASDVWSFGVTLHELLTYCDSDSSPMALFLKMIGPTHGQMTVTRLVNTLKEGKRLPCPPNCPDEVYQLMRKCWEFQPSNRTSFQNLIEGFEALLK

Variant | effect of a mutation on the interaction
MSRVPSPPPPAEMSSGPVAESWCYTQIKVVKFSYMWTINNFSFCREEMGEVIKSSTFSSGANDKLKWCLRVNPKGLDEESKDYLSLCLLLVSCPKSEVRAKFKFSILNAKGEETKAMESQRAYRFVQGKDWGFKKFIRRDFLLDEANGLLPDDKLTLFCEVSVVQDSVNISGQNTMNMVKVPECRLADELGGLWENSRFTDCCLCVAGQEFQAHKAILAARSPVFSAMFEHEMEESKKNRVEINDVEPEVFKEMMCFIYTGKAPNLDKMADDLLAAADKYALERLKVMCEDALCSNLSVENAAEILILADLHSADQLKTQAVDFINYHASDVLETSGWKSMVVSHPHLVAEAYRSLASAQCPFLGPPRKRLKQS [Y87C] | with no effect

Variants of: B1
Details: with jak3_human JAK3, P52333
Sequence of jak3_human JAK3, P52333 (P52333 whole entry): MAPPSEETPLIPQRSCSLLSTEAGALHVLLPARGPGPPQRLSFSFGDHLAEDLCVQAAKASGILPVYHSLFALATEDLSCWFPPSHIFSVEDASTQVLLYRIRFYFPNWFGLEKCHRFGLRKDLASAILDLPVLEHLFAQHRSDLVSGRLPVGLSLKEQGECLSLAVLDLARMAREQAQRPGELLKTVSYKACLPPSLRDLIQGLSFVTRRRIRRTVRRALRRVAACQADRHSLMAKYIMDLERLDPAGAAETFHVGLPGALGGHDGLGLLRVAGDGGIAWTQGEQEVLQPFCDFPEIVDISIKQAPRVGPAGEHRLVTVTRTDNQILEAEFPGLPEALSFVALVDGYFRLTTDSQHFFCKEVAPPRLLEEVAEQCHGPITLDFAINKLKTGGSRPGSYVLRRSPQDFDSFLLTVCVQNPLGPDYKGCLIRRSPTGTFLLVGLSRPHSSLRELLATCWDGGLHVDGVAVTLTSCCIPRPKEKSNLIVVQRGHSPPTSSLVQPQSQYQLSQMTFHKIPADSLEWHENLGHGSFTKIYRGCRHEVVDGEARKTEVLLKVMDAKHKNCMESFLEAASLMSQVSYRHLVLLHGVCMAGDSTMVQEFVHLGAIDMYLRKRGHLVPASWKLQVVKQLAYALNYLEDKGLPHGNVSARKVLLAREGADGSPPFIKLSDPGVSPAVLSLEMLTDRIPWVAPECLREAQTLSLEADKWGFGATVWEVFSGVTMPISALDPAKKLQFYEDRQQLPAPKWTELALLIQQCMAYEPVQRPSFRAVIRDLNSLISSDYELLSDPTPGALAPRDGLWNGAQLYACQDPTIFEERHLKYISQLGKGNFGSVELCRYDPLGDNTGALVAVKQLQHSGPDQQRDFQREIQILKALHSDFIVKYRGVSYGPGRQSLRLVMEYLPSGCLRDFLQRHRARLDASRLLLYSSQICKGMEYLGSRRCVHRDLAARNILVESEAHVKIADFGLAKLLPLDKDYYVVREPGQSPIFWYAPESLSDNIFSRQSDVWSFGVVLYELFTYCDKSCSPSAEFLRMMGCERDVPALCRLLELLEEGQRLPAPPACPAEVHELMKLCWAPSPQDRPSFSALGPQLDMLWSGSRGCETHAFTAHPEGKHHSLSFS

Variant | effect of a mutation on the interaction
MSRVPSPPPPAEMSSGPVAESWCYTQIKVVKFSYMWTINNFSFCREEMGEVIKSSTFSSGANDKLKWCLRVNPKGLDEESKDYLSLCLLLVSCPKSEVRAKFKFSILNAKGEETKAMESQRAYRFVQGKDWGFKKFIRRDFLLDEANGLLPDDKLTLFCEVSVVQDSVNISGQNTMNMVKVPECRLADELGGLWENSRFTDCCLCVAGQEFQAHKAILAARSPVFSAMFEHEMEESKKNRVEINDVEPEVFKEMMCFIYTGKAPNLDKMADDLLAAADKYALERLKVMCEDALCSNLSVENAAEILILADLHSADQLKTQAVDFINYHASDVLETSGWKSMVVSHPHLVAEAYRSLASAQCPFLGPPRKRLKQS [Y87C] | with no effect

Variants of: B1
Details: with kat2a_human KAT2A

Variant | effect of a mutation on the interaction
MSRVPSPPPPAEMSSGPVAESWCYTQIKVVKFSYMWTINNFSFCREEMGEVIKSSTFSSGANDKLKWCLRVNPKGLDEESKDYLSLCLLLVSCPKSEVRAKFKFSILNAKGEETKAMESQRAYRFVQGKDWGFKKFIRRDFLLDEANGLLPDDKLTLFCEVSVVQDSVNISGQNTMNMVKVPECRLADELGGLWENSRFTDCCLCVAGQEFQAHKAILAARSPVFSAMFEHEMEESKKNRVEINDVEPEVFKEMMCFIYTGKAPNLDKMADDLLAAADKYALERLKVMCEDALCSNLSVENAAEILILADLHSADQLKTQAVDFINYHASDVLETSGWKSMVVSHPHLVAEAYRSLASAQCPFLGPPRKRLKQS [Y87C] | with no effect

Variants of: B1
Details: with kdm5a_human KDM5A

Variant | effect of a mutation on the interaction
MSRVPSPPPPAEMSSGPVAESWCYTQIKVVKFSYMWTINNFSFCREEMGEVIKSSTFSSGANDKLKWCLRVNPKGLDEESKDYLSLCLLLVSCPKSEVRAKFKFSILNAKGEETKAMESQRAYRFVQGKDWGFKKFIRRDFLLDEANGLLPDDKLTLFCEVSVVQDSVNISGQNTMNMVKVPECRLADELGGLWENSRFTDCCLCVAGQEFQAHKAILAARSPVFSAMFEHEMEESKKNRVEINDVEPEVFKEMMCFIYTGKAPNLDKMADDLLAAADKYALERLKVMCEDALCSNLSVENAAEILILADLHSADQLKTQAVDFINYHASDVLETSGWKSMVVSHPHLVAEAYRSLASAQCPFLGPPRKRLKQS [Y87C] | with no effect

Variants of: B1
Details: with kdm5c_human KDM5C

Variant | effect of a mutation on the interaction
MSRVPSPPPPAEMSSGPVAESWCYTQIKVVKFSYMWTINNFSFCREEMGEVIKSSTFSSGANDKLKWCLRVNPKGLDEESKDYLSLCLLLVSCPKSEVRAKFKFSILNAKGEETKAMESQRAYRFVQGKDWGFKKFIRRDFLLDEANGLLPDDKLTLFCEVSVVQDSVNISGQNTMNMVKVPECRLADELGGLWENSRFTDCCLCVAGQEFQAHKAILAARSPVFSAMFEHEMEESKKNRVEINDVEPEVFKEMMCFIYTGKAPNLDKMADDLLAAADKYALERLKVMCEDALCSNLSVENAAEILILADLHSADQLKTQAVDFINYHASDVLETSGWKSMVVSHPHLVAEAYRSLASAQCPFLGPPRKRLKQS [Y87C] | with no effect

Variants of: B1
Details: with kdm6a_human KDM6A

Variant | effect of a mutation on the interaction
MSRVPSPPPPAEMSSGPVAESWCYTQIKVVKFSYMWTINNFSFCREEMGEVIKSSTFSSGANDKLKWCLRVNPKGLDEESKDYLSLCLLLVSCPKSEVRAKFKFSILNAKGEETKAMESQRAYRFVQGKDWGFKKFIRRDFLLDEANGLLPDDKLTLFCEVSVVQDSVNISGQNTMNMVKVPECRLADELGGLWENSRFTDCCLCVAGQEFQAHKAILAARSPVFSAMFEHEMEESKKNRVEINDVEPEVFKEMMCFIYTGKAPNLDKMADDLLAAADKYALERLKVMCEDALCSNLSVENAAEILILADLHSADQLKTQAVDFINYHASDVLETSGWKSMVVSHPHLVAEAYRSLASAQCPFLGPPRKRLKQS [Y87C] | with no effect
